Test results as given in patent US20040219615.

B1: RIP (receptor interacting protein) (protein)
chain: MQPDMSLNVIKMKSSDFLESAELDSGGFGKVSLCFHRTQGLMIMKTVYKGPNCIEHNEALLEEAKMMNRLRHSRVVKLLGVIIEEGKYSLVMEYMEKGNLMHVLKAEMSTPLSVKGRIILEIIEGMCYLHGKGVIHKDLKPENILVDNDFHIKIADLGLASFKMWSKLNNEEHNELREVDGTAKKNGGTLYYMAPEHLNDVNAKPTEKSDVYSFAVVLWAIFANKEPYENAICEQQLIMCIKSGNRPDVDDITEYCPREIISLMKLCWEANPEARPTFPGIEEKFRPFYLSQLEESVEEDVKSLKKEYSNENAVVKRMQSLQLDCVAVPSSRSNSATEQPGSLHSSQGLGMGPVEESWFAPSLEHPQEENEPSLQSKLQDEANYHLYGSRMDRQTKQQPRQNVAYNREEERRRRVSHDPFAQQRPYENFQNTEGKGTAYSSAASHGNAVHQPSGLTSQPQVLYQNNGLYSSHGFGTRPLDPGTAGPRVWYRPIPSHMPSLHNIPVPETNYLGNTPTMPFSSLPPTDESIKYTIYNSTGIQIGAYNYMEIGGTSSSLLDSTNTNFKEEPAAKYQAIFDNTTSLTDKHLDPIRENLGKHWKNCARKLGFTQSQIDEIDHDYERDGLKEKVYQMLQKWVMREGIKGATVGKLAQALHQCSRIDLLSSLIYVSQN
B2: IKK1 (protein)
chain: MERPPGLRPGAGGPWEMRERLGTGGFGNVCLYQHRELDLKIAIKSCRLELSTKNRERWCHEIQIMKKLNHANVVKACDVPEELNILIHDVPLLAMEYCSGGDLRKLLNKPENCCGLKESQILSLLSDIGSGIRYLHENKIIHRDLKPENIVLQDVGGKIIHKIIDLGYAKDVDQGSLCTSFVGTLQYLAPELFENKPYTATVDYWSFGTMVFECIAGYRPFLHHLQPFTWHEKIKKKDPKCIFACEEMSGEVRFSSHLPQPNSLCSLVVEPMENWLQLMLNWDPQQRGGPVDLTLKQPRCFVLMDHILNLKIVHILNMTSAKIISFLLPPDESLHSLQSRIERETGINTGSQELLSETGISLDPRKPASQCVLDGVRGCDSYMVYLFDKSKTVYEGPFASRSLSDCVNYIVQDSKIQLPIIQLRKVWAEAVHYVSGLKEDYSRLFQGQRAAMLSLLRYNANLTKMKNTLISASQQLKAKLEFFHKSIQLDLERYSEQMTYGISSEKMLKAWKEMEEKAIHYAEVGVIGYLEDQIMSLHAEIMELQKSPYGRRQGDLMESLEQRAIDLYKQLKHRPSDHSYSDSTEMVKIIVHTVQSQDRVLKELFGHLSKLLGCKQKIIDLLPKVEVALSNIKEADNTVMFMQGKRQKEIWHLLKIACTQSSARSLVGSSLEGAVTPQTSAWLPPTSAEHDHSLSCVVTPQDGETSAQMIEENLNCLGHLSTIIHEANEEQGNSMMNLDWSWLTE

Target: RAP-2 (RIP-associated protein-2), full-length
Sequence (chain, as listed by the source): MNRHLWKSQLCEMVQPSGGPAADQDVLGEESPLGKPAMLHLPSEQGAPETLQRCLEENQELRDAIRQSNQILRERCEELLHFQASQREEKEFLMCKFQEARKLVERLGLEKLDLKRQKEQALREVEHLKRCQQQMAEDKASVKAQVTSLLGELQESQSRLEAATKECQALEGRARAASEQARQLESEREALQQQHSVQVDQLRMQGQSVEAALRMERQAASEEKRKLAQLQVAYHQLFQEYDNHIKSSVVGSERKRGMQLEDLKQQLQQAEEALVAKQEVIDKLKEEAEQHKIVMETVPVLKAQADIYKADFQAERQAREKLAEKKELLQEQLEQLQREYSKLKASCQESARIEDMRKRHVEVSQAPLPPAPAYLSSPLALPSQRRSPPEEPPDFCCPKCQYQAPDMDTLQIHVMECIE

Protein	in vitro immunocomplex kinase assay	in vitro phosphorylation of the immunoprecipitated complex
B1	over-expressed RIP did not phosphorylate RAP-2	–
B2	–	RAP-2 becomes phosphorylated
